The source of these data is publication PMC9361823.

Test [1] concerns the target CumDO-O α1K117A (Pseudomonas fluorescens IP01) (UniProt Q51743).
The target in test [2] is CumDO-O β1R65A (Pseudomonas fluorescens IP01) (UniProt Q51743).
The target of test [3] is CumDO-O α1K117A α1K141A (Pseudomonas fluorescens IP01) (UniProt Q51743).
Test [4] concerns the target CumDO-O α1K117A β1R65A (Pseudomonas fluorescens IP01) (UniProt Q51743).
The target in test [5] is CumDO-O α1K117A β2W100A (Pseudomonas fluorescens IP01) (UniProt Q51743).
Test [6] addresses CumDO-O α1K141A β1R65A (Pseudomonas fluorescens IP01) (UniProt Q51743).
Test [7] concerns the target CumDO-O α1K141A β2W100A (Pseudomonas fluorescens IP01) (UniProt Q51743).
In test [8] the target is CumDO-O β1R65A β2W100A (Pseudomonas fluorescens IP01) (UniProt Q51743).
Test [9] deals with α3β3-type oxygenase component of cumene dioxygenase (CumDO-O), wild type (Pseudomonas fluorescens IP01) (UniProt Q51743).

Rieske-type ferredoxin of cumene dioxygenase (CumDO-F), sequence (Q51746 entry or part of it): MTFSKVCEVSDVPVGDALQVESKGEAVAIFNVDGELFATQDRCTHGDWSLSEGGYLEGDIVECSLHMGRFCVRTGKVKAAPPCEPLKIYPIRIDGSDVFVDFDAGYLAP

“Rieske-type ferredoxin of cumene dioxygenase (CumDO-F) (from UniProt Q51746 1-109) (natural protein)”: the reduction efficiency by CumDO-F relative to WT CumDO-O (A457) in [1] is 21%; in [2], 46%; in test [3], under 20%; in [4] it was under 20%; in test [5] it was under 20%; in test [6] it was under 20%. The reduction efficiency by CumDO-F relative to WT CumDO-O (A457) in test [7] is 69%; in [8], under 20%. In test [9], this substance returned a reduction efficiency of the Rieske cluster of CumDO-O by CumDO-F (initial rate of decrease of A457; purified CumDO-R, CumDO-F, CumDO-O and NADH) of 100%.
